According to patent US20170096478A1, “THERAPEUTIC AGENT FOR INFLAMMATORY DISEASE” (Josai University Corporation, priority 2012, published 2017):

Assays:
[1] = test system: lipopolysaccharide (LPS)-induced lethal sepsis; assay: Test Example 8-2: histone concentration in serum and inflammatory tissue (lung); assay type: in vivo, BALB/c mice
Procedure: (§1) BALB/c mice (bodyweight of 20 g to 30 g when starting the experiments, n=10) were raised in a plastic cage under SPF and thermo-hydrostat (22±1° C., 55±5%) conditions under 12-hour light-dark cycle. Foods and water were supplied ad libitum. Then, by intraperitoneally administering LPS to the mice at a dose of 40 mg/kg, lipopolysaccharide (LPS)-induced lethal sepsis as an inflammatory disease was induced in the same manner as Test Example 7. SSV mAb dissolved in physiological saline was intraperitoneally administered totally 3 times, i.e., at 30 minutes before, 6 hours after and 12 hours after the intraperitoneal administration of LPS, in an amount of 100 μg/dose in terms of the amount of SSV mAb. The survival of the animals thereafter was tested. To the control group, IgG (SIGMA) dissolved in physiological saline was administered in place of SSV mAb in the same manner.
In Test Example 8, heart-derived blood or lung tissue was obtained from control group and SSV mAb-administered group under general anesthesia according to the method conducted by Hasegawa et al. (Surg Res. 2012 May 1; 174(1):136-41.). The concentration of histone H1, histone H3 and H4 of the obtained samples were measured by using a commercially available measurement kit using ELISA.

[2] = test system: lipopolysaccharide (LPS)-induced lethal sepsis; assay: Test Example 8-4: evaluation of congestion, edema, inflammation and bleeding; assay type: in vivo, BALB/c mice; conditions: vs control group
Procedure: as §1
After the end of Test Example 8, scores of congestion, edema, inflammation and bleeding were evaluated according to the method of Murakami et al. (Shock, 18 (2002), p. 236). In particular, magnified images of 24 visual fields under a microscope were subjected to observation. The degrees of deterioration of congestion, edema and inflammation in the SSV mAb-administered group and the control group were evaluated on a 5-point scale ranging from 0 to 4 (4 is the highest deterioration).

histone H2A = assay: ELISA affinity for histone H2A; assay type: binding; conditions: absorbance at 405 nm; 5 μg/mL antibody; compared with histone H1
Procedure: The Affinities between histone H1 or core histone and SSVmAb were determined by ELISA.
A 96 well microplate was coated with histone H1, H2A, H2B, H3 or H4. Each histone used was dissolved in 100 mM sodium carbonate buffer (pH 9.3). The plate was washed with PBS-tween 20 (0.05%), and blocked with 3% skim milk and 1% BSA for 1 hour. To each well, 5 μg/mL SSVmAb was added, and incubated for 1 hour. Bound SSVmAb was detected using peroxidase (HRP) conjugated anti mouse IgG1 Ab (SIGMA), and incubated for 1 hour. Bound SSVmAb was detected using the ABTS [2,2′-azino-bis(3-ethylbenzothiazoline-sulfonic acid)] substrate solution, and absorbance at 405 nm was measured using Multiskan Ascent (Thermo Fisher Scientific Inc., Waltham, Mass.).

[3] = test system: spleen lymphocytes from a naive DA rat (responsive cells) and from a LEW rat (stimulated cells); assay: MLR tests (mixed lymphocyte reaction, BrdU incorporation); assay type: cell-based
Procedure: Spleen lymphocytes from a naive DA rat (responsive cells) and spleen lymphocytes from a LEW rat treated with mitomycin-C (Kyowa Hakko Kogyo Co., Ltd.) (stimulated cells) were used. The responsive cells were adjusted to 5×10^5 cells/mL with 10% FCS-RPMI culture medium, and the stimulated cells were adjusted to 8×10^6 cells/mL with 10% FCS-RPMI culture medium. After plating the responsive cell suspension and the stimulated cell suspension in an amount of 100 μL to a 96 well round-bottom plate (Nunc Brand Products) respectively, the monoclonal antibody 16G9mAb of Reference Example 1 (0.1, 2, 4, or 6 μg/mL/well) or the monoclonal antibody SSVmAb of Example 1 (4 μg/mL/well) was added at the start of mixed culture, and cultured for 3.5 days or longer under the conditions of 37° C., 5% CO2/95% air. In addition, an immunosuppressive agent tacrolimus (FK506: Fujisawa Pharmaceutical Co., Ltd., 1 nM/well) was added as a positive control. Further, 10 μL bromo deoxyuridine (BrdU) was added 15 hours before the end of culture. Then the proliferation potential of the cells treated with the immunosuppressive agent was measured using BrdU labeling & detection kit III (Roche Diagnostics K.K.) using the amount of BrdU incorporated into cellular DNA as an indicator.

B1: SSV mAb: monoclonal antibody (IgG1) produced by Mouse-Mouse hybridoma SSV-C 93-3 (NITE BP-972), raised against peptide … (SEQ ID NO:1)-KLH conjugate (antibody, V domains shown)
VH: EIQLQQSGAELVKPGASVKISCKASGYSFTGYNMNWVKQSHGKSLEWIGNINPYYGSTSYNQKFKGKATLTVDKSSSTAYMQLNSLTSEDSAVYYCARSPYYSNYWRYFDYWGQGTTLTVSS
VL: QIVLSQSPAILSASPGEKVTMTCRASSSVSYMHWYQQKPGSSPKPWIYATSNLASGVPARFSGSGSGTSYSLTISRVEAEDAATYYCQQWSSNPWTFGGGTKLEIK
concentration of histone H3 in blood sample ([1]; FIG. 10A, vs control group): lower than the control group | concentration of histone H3 in inflammatory tissue (lung) ([1]; FIG. 10B, vs control group): lower than the control group | concentration of histone H1 in blood sample ([1]; serum, during the test): almost kept constant without increase | concentration of histone H3 in blood sample ([1]; stated under the histone H4 results, FIG. 11A, vs control group): tend to be lower than the control group | concentration of histone H3 in inflammatory tissue (lung) ([1]; stated under the histone H4 results, FIG. 11B, vs control group): tend to be lower than the control group | concentration of histone H1 in inflammatory tissue (lung) ([1]; vs control group): more significantly decreased than that from the control group | score of congestion ([2]; 5-point scale 0 to 4): significantly lower | score of edema ([2]; 5-point scale 0 to 4): significantly lower | score of inflammation ([2]; 5-point scale 0 to 4): significantly lower | score of bleeding [2]: significantly lower | affinity for histone H2A (ELISA) (histone H2A): higher than the affinity for histone H1 | absorbance which indicates the amount of incorporated BrdU ([3]; 4 μg/mL/well, mean±S.E.): 0.552±0.114 | absorbance (incorporated BrdU) compared with Reference Example 1 (16G9mAb) and tacrolimus (FK506) ([3]; SSVmAb 4 μg/mL/well, FK506 1 nM/well): lower | mean absorbance of Example 1 relative to that of Reference Example 1 ([3]; same amount added, 4 μg/mL/well): about 41%
